Molecular target: Phenylalanine hydroxylase from Legionella pneumophila (Legionella pneumophila) (UniProt Q5ZS72)
Assay: crystal structure

With “Phenylalanine hydroxylase from Legionella pneumophila (from UniProt Q5ZS72 1-272) (enzyme)” the stoichiometry N was 2.
